Assay results as given in a protein production outcome set (Wang et al. 2014).

Test: label from the status in PepcDB records
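Further: failed if final PepcDB status was selected cloned or expressed and not failed if soluble or beyond.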

Sequence | protein production
MTADKISPDMLRFERILAAPAATVWQYLVDPELRARWFMSGPTDLQVGGAFGLTMDHDRLSDEVVPTPDRYKPYVGHRWHERITRYEPPHLLAFTWEDGKAGEVTFALTEIDSGTTRLVLTHTGLRGSEDALNFGGGWHAHLAVLEKRIAGISIPDFWALHAVAEREMEIALVSEA | failed
MKGEESVQLQSIEKRVSSGHSPSCAEILLSTIQEMNREENLLKALDLFTQRSLVLFDCDVAAIYLLEQGKYKPFSVSFRDDKDRETLMLREFPQDFREIGTEVVETDEEWVLALSHFGKTLGAYVLKGRRSQCRDEGSAVFVKQVISIISSFIFERILKIDSLSREQALTLLLRGTEILVRADSEEQLLSEAGEMAMEILFLPGGFFLLEGAGGTWEIRSPFGRLKQEMEWDWRTWVRQYISKEECCLRSAKVHFFDIENNPFKWERVWIHPLQTHSGVVGELWLMNAGKYLNDQEQEILTAFIRVVGVALETIRQREELARLANTDRLTGILNRQGFEQRVREEIASTLRRDSRFLFLVLDLDRFKQLNDTLGHPMGDRALKEIAQNLRCAVREQDIVARTGGDEFTVVLTDIALNEESLTVIERMRKSMHLEEYNLGVSIGVAEFPTEGRTYDELYRLADQRLYRGKNSGKGNIIAD | failed
MAKKTGTKEPAPKKEKKKKERRRGKGEGTIVPHASGLFMAQISLGRDPLTGKRIRPTIYDDSEVGVQKKLRKLLIKKDLGKSVKPNKTLVGEWIRIWLDIYSKPNVGIGTWDGYDLNFTNHIENSFIARKTMSGLTTDDLQVYYNMKLLNGRKDGKGGLSTRFVKAIHTVISSAFDQAVTSGHLEKNPASGVRISNKRRPKIKIWNKEQMALYLKAIKKDRLYAAFVTDSKSGLRKSELLALRWSDIDFSTGLTKIERGWVRSPKGTLYLSDLKSENSERTLVFSTDLLKVLLEHKSRQDEEKKTAGKNYIDNGLVFCREDGSYINPSTFTRRHYDLTAKAKLPRISVHALRHSISTALLESGKVDLKQIQEMLGHKDISTTGNYYTDVLERMKQKTSELIDNLIQTEETPAQASLPAAQPSASDLAEEESVEAKNVIDFATRRNEKLFIASNGQKQKNREKAQKP | failed
DIAARRHTGVIPTHHQFITNERFGDLLNIDDTAKRKSGSEMRPARAKFDFKAQTLKELPLQKGDIVYIYKQIDQNWYEGEHHGRVGIFPRTYIELLPPAEKAQPKKLTPVQVLEYGEAIAKFNFNGDTQVEMSFRKGERITLLRQVDENWYEGRIPGTSRQGIFPITYVDVIKRPLVKNPVDYMDLPF | failed
MTIPYKEQRLPIEKVFRDPVHNYIHVQHQVILDLINSAEVQRLRRIKQLGTSSFTFHGAEHSRFSHSLGVYEITRRICEIFQRNYSVERLGENGWNDDERLITLCAALLHDVGHGPYSHTFEHIFDTNHEAITVQIITSPETEVYQILNRVSADFPEKVASVITKQYPNPQVVQMISSQIDADRMDYLLRDAYFTGTEYGTFDLTRILRVIRPYKGGIAFAMNGMHAVEDYIVSRYQMYVQVYFHPVSRGMEVILDHLLHRAKELFENPEFDYDLQASLLVPFFKGDFTLQEYLKLDDGVLSTYFTQWMDVPDSILGDLAKRFLMRKPLKSATFTNEKESAATIAYLRELIEKVGFNPKYYTAINSSYDLPYDFYRPNKDRHRTQIELMQKDGSLVELATVSPLVAALAGQSQGDERFYFPKEMLDQGNKKHYDLFDETYREFSSYIHNGALVLKK | not failed
MSLARCERLRGAALRDVLGRAQGVLFDCDGVLWNGERAVPGAPELLERLARAGKAALFVSNNSRRARPELALRFARLGFGGLRAEQLFSSALCAARLLRQRLPGPPDAPGAVFVLGGEGLRAELRAAGLRLAGDPSAGDGAAPRVRAVLVGYDEHFSFAKLREACAHLRDPECLLVATDRDPWHPLSDGSRTPGTGSLAAAVETASGRQALVVGKPSPYMFECITENFSIDPARTLMVGDRLETDILFGHRCGMTTVLTLTGVSRLEEAQAYLAAGQHDLVPHYYVESIADLTEGLEDEGHHHHHH | not failed
MAESLITKKAIAGGLMELCQHKRFEKISIADITNICGLNRQTFYYHFTDKYDLLTWTYENDFFHCLADGITLENWDKHVLKMLESIKENADFYKNTVSADASILSFCFSKLTNSLFMDLFEKIDTNGAVNEADRVFYAEFFSYGCSGVLIKWITRGFKEAPETIANQLFRLAKDTEFLANSMYRENLEHHHHHH | not failed
MLQRLFIFLLIFLILPDIYLYLRFIVHLTAKRWLRILYWLPAFLLSAGLLYLVYFSNNAFAERHTQAIGWFSIFFFLFTAPKLLLSLCTIIGVPFHKWLRWPRTPFICTGLTLAVISIVMIIYGSFIGRTQFDVKEVTYSSPKLPSAFDGYRIVQLSDIHIGSWQGNASAIQKLVKLVNEQQADLIVFTGDLVNHRAVELNDFQDILAGLKAKDGVYSILGNHDYGPYFHWKSKDEQDDNLNDLLQRQAAMGWKLLNNSHTILIQGSDSIALIGVENEGEPPFSQYADLPEAMRGTEGMFQILLSHNPTHWRREVLPQTYIDLMLAGHTHAMQLKFGNHSPSSYIYPEWSGMYLEGTRGLYVNEGIGYVGLPFRFGAWPEITVLTLRQ | failed
MTPQRATLTGMLAIILWSTSVGLIRSLTEALGPIGGAAMIYSTSTLCLLVFYGLPRIKTLPRIYLFAGGALFVCYEIFLSLSIGLADSRMQAMEIGMINYLWPSLTILFSLFINQQKSRFLLWPGLVISLGGIVWIMKGESDWTPELLWNNILANPLAYSLAFSAALTWALYCNITKRYGQGKSGVSLFFFIASLVLWIQYSFSAEGPISLTLPSSLELLFMGASAALAYSAWNAGIQYGNLTLLATASYFTPVLSTLLAAIWLNITPAISFWQGVAMVTAGSLLCWYATRSSTR | failed
MKTGKELKPGTVIRLENDPWLVQKAEFTKSGRNSAIMKTKLKNLLTGYKTEIVYSADDKLDDVILDRKEATLSFISGDTYTFMDTTDYTMYELNAEDIESVLPFVEEGMTDVCEAVFFDERLVSVELPTTIVRQVDYTEGSARGDTSGKVMKPAKLKNGTELSVADFIEIGDMIEIDTREGGSYKGRAKLEHHHHHH | failed
MVDPNEHKKAVKTQQQDDEQTFEAVARAWHTDNKKWSESHAERILKSLSDNIFPAIGGTHVANLKTRDLLTPIKSVERSGRLEVAKRLKQRVTAIMTYAVQNGLIDYNPAQDMAGAIMPGKVEHRLEHHHHHH | failed
MIKQDVICYEKEDVVKRNNINITGGGEKTVLLAHGFGCDQNMWRFMLPELEKQFTVIVFDYVGSGQSDLESFSTKRYSSLEGYAKDVEEILVALDLVNVSIIGHSVSSIIAGIASTHVGDRISDITMICPSPCFMNFPPDYVGGFERDDLEELINLMDKNYIGWANYLAPLVMGASHSSELIGELSGSFCTTDPIVAKTFAKATFFSDYRSLLEDISTPALIFQSAKDSLASPEVGQYMAENIPNSQLELIQAEGHCLHMTDAGLITPLLIHFIQNNQTRA | not failed
MTTQKLLSDCQFCSVVSKNNGEDPIGTANTSDNWLVLEAALPWTEEHLHSDRILSQIHDLFHELENRHIPVIPIAIAPDREYSVPGYVRALHYKRPTKSFAEFEKQEFLIPESQIGQFTSGFLEYPNDLDQFQTYQQPKNHIREIMVCTHGNVDVACSRFGYPIYQNLRQNYAAKSAGQLRVWRCSHIGGHQFAPTLFDLPTGQFWGHIEPEILDVLVWRNSPVKQLRQFYRGWSGMTKFEQIVEREIWMQHGWEWLQYQKSGQVLAKDTTNDEWNADWAEVRIDFTSPDNSIQGSYLARVEACSQVMTVFNSGKEQPLETVKQYRVSQLTQQLINI | failed
HQPNIIPYHKGFYRAFSKLHTTTFKYQAQSPQDIIDSLDDHHHLFLFVSEGLLKGYLYLEIDSQQSIAEIKYFSSHVDYRLKGIAFELLAYALQYAFDNFDIRKVYFKIRNKNNKLIERFNGLGFHINYEYIKFKFESRNVKDQTIPE | failed
MRRFVIGQAKNLIDQSRRRQLHHHKNLSFVSLIPPFSAPSDSSSRHLSSSSSSDMSASDSSSSLPVTLDTINPKVIKCEYAVRGEIVNIAQKLQEDLKTNKDAYPFDEIIYCNIGNPQSLGQQPITFFREVLALCSYTALLDESATHGLFSSDSIERAWKILDQIPGRATGAYSHSQGIKGLRDAIADGIEARDGFPADPNDIFMTDGASPGVHMMMQLLITSEKDGILCPIPQYPLYSASIALHGGTLVPYYLDEASGWGLEISELKKQLEDARSKGITVRALAVINPGNPTGQVLSEENQRDVVKFCKQEGLVLLADEVYQENVYVPDKKFHSFKKVARSMGYGEKDLALVSFQSVSKGYYGECGKRGGYMEVTGFTSDVREQIYKMASVNLCSNISGQILASLIMSPPKPGDDSYESYIAEKDGILSSLARRAKTLEEALNKLEGVTCNRAEGAMYLFPCLHLPQKAIAAAEAEKTAPDNFYCKRLLKATGIVVVPGSGFRQVPGTWHFRCTILPQEDKIPAIVDRLTAFHQSFMDEFRD | failed
MNYFPDEVIEHVFDFVASHKDRNSISLVCKSWHKIERFSRKEVFIGNCYAINPERLIRRFPCLKSLTLKGKPHFADFNLVPHEWGGFVHPWIEALARSRVGLEELRLKRMVVTDESLDLLSRSFANFKSLVLVSCEGFTTDGLASIAANCRHLRELDLQENEIDDHRGQWLNCFPDSCTTLMSLNFACLKGETNVAALERLVARSPNLKSLKLNRAVPLDALARLMSCAPQLVDLGVGSYENEPDPESFAKLMTAIKKYTSLRSLSGFLEVAPLCLPAFYPICQNLISLNLSYAAEIQGNHLIKLIQLCKRLQRLWILDSIGDKGLAVVAATCKELQELRVFPSDVHGEEDNNASVTEVGLVAISAGCPKLHSILYFCKQMTNAALIAVAKNCPNFIRFRLCILEPHKPDHITFQSLDEGFGAIVQACKGLRRLSVSGLLTDQVFLYIGMYAEQLEMLSIAFAGDTDKGMLYVLNGCKKMRKLEIRDSPFGNAALLADVGRYETMRSLWMSSCEVTLGGCKRLAQNSPRLNVEIINENENNGMEQNEEDEREKVDKLYLYRTVVGTRKDAPPYVRIL | failed
MNKLYIGNLSPAVTADDLRQLFGDRKLPLAGQVLLKSGYAFVDYPDQNWAIRAIETLSGKVELHGKIMEVDYSVSKKLRS | not failed
MKIIGFACQWCAYQAADLAGSLKMKYPESIRLLRVPCSGRVNAEFILKALLSGADGVFVAGCPISECHYRSGNRIAKTKVALLKRLLPEFGLESGRVEFLQVSSADARKFVEFAKEFDERIRKLG | failed
MITGKRFKFILLTFIFAAGLFFTQAGILFAQDKPDALKLYRQGRSLDSIGRREDARAAYLSAIEICRNELKVNSKNMDSYAVYTWCLFRLGRYKDTELVCSDALKIGRDARIIETLAEAQFFLGNYKDSLRNMEMYIEMAPNGERISVAHFFVGEIYRNTKKYHKADIAYSISVHLEPSNSLWWYRLGIVREAAGEKEGAIAAYQTAVKLRPEFKEAAEALKRVKI | failed
MGLSKVEEKYRKSHEIFLKRLAALPKPEFDNTLPVHEKLDEIKKTVAEHQVTIICGETGSGKTTQLPKICLELGRGVAGLIGHTQPRRLAARSVAERIAEELKSEIGSAVGYKVRFTDHTSRDACVKLMTDGILLAETQTDRYLAAYDTIIIDEAHERSLNIDFLLGYLKQLLPRRPDLKVIITSATIDAERFSRHFNGAPVLEVSGRTYPVEILYRPLTGKDEDDAEVELTDAIVDAADELARHGEGDILVFLPGEREIRETAEALRKSTLRRNDEILPLFARLSHAEQHKIFHPSGAKRRIVLATNVAETSLTVPGIKYVIDTGLARVKRYSARAKVEQLHVEKISQAAARQRSGRCGRVSAGVCIRLFSEEDFNSRPEFTDPEIVRSNLAAVILRMASLNLGDVAAFPFLEMPDSRYINDGFQVLLELGAVEAVLEHHHHHH | failed
MRGKRGFFGHADSRVRLFCRRLTGKQRILLAGTASFLLAASCLYSILSCVSRFGEPGQRPAMGHIRSVVFRPERTRNIHSNIHKHENGLSENQGTARSVK | failed
